Results from paper PMC8458682 (Slas Discovery, 2022).

Key:
SARS-CoV-2 M^pro [1] = molecular target: T1, SARS-CoV-2 M^pro (Severe acute respiratory syndrome coronavirus 2, UniProt P0DTD1); assay type: biochemical
SARS-CoV-2 M^pro [2] = molecular target: T1, SARS-CoV-2 M^pro; experiment: biochemical; conditions: read-out: Screening: Inhibition @ 50 µM
[3] = tested on: CC(C)C[C@H](NC(=O)[C@@H](NC(=O)[C@@H](NC(=O)[C@@H](NC(=O)c1ccccc1N)C(C)C)C(C)C)[C@@H](C)O)C(=O)N[C@@H](CCC(N)=O)C(=O)N[C@@H](CO)C(=O)NCC(=O)N[C@@H](CNc1ccc([N+](=O)[O-])cc1[N+](=O)[O-])C(=O)N[C@@H](CCCNC(=N)N)C(=O)O; experiment: purified protein, by the assay type; conditions: pH 7.4
[4] = tested on: CC(C)C[C@H](NC(=O)[C@@H](NC(=O)[C@@H](NC(=O)[C@@H](NC(=O)c1ccccc1N)C(C)C)C(C)C)[C@@H](C)O)C(=O)N[C@@H](CCC(N)=O)C(=O)N[C@@H](CO)C(=O)NCC(=O)N[C@@H](Cc1ccc(O)c([N+](=O)[O-])c1)C(=O)N[C@@H](CCCNC(=N)N)C(=O)O; experiment: purified protein, by the assay type; conditions: pH 7.4
[5] = tested on: CC(C)C[C@H](NC(=O)[C@@H](NC(=O)[C@H](C)NC(=O)[C@H](CO)NC(=O)c1ccccc1N)C(C)C)C(=O)N[C@@H](CCC(N)=O)C(=O)N[C@@H](CO)C(=O)NCC(=O)N[C@@H](Cc1ccc(O)c([N+](=O)[O-])c1)C(=O)N[C@@H](CCCNC(=N)N)C(=O)O; experiment: purified protein, by the assay type; conditions: pH 7.4

CC(C)(C)NC(=O)N[C@H](C(=O)N1C[C@H]2[C@@H]([C@H]1C(=O)NC(CC1CCC1)C(=O)C(N)=O)C2(C)C)C(C)(C)C (some centres unmarked) [Boceprevir] was tested, and the Hill slope (SARS-CoV-2 M^pro [1]) was 0.85 ± 0.05 and the inhibition at 50 µM (SARS-CoV-2 M^pro [2]) was 55.5 ± 4.7%.

With “SARS-CoV-2 M^pro (Severe acute respiratory syndrome coronavirus 2)” the Km [3] was 103.3 ± 18.5 µM, the Vmax [3] was 0.426 µM/min and the kcat [3] was 0.0237 ± 0.0017 s⁻¹. For the same compound, the kcat/Km [3] was 229 ± 44.2 M⁻¹ s⁻¹, the Km [4] was 197.9 ± 39.0 µM and the Vmax [4] was 1.32 µM/min. The kcat [4] was 0.0733 ± 0.0077 s⁻¹, the kcat/Km [4] was 370 ± 82.6 M⁻¹ s⁻¹ and the Km [5] was 536.3 ± 156.6 µM. For the same compound, the Vmax [5] was 2.39 µM/min, the kcat [5] was 0.133 ± 0.0279 s⁻¹ and the kcat/Km [5] was 248 ± 89.2 M⁻¹ s⁻¹.
